The values below come from patent US5637463.

Assay in all cases: yeast two-hybrid with co-expressed Lck, LacZ reporter
Assay [1] addresses LexA-FcεRIγCT double mutant with Tyr64 and Tyr75 changed to phenylalanine, co-expressed with Lck (E. coli; human) (UniProt P0A7C2).
The target of assay [2] is LexA-FcεRIγCT mutant with Tyr64 changed to phenylalanine, co-expressed with Lck (E. coli; human) (UniProt P0A7C2).
The target in assay [3] is LexA-FcεRIγCT mutant with Tyr75 changed to phenylalanine, co-expressed with Lck (E. coli; human) (UniProt P0A7C2).
Assay [4] has as its target LexA-NLS-FcεRIγ CT fusion protein, co-expressed with Lck (tyrosine-phosphorylated) (E. coli; human) (UniProt P0A7C2).
The target of assay [5] is LexA-βCT fusion protein (C-terminus of the rat β subunit of FcεRI), co-expressed with Lck (E. coli; rat).

As for “Vmw65-Syk N+C SH2 fusion protein (human Syk amino acids 11-262) (from UniProt P06492)”, the Galactosidase units (Galactosidase units) in assay [1] was determined as 0; in assay [2], 0; in assay [3], 0; in assay [4], 559; in assay [5], 1070.

Turning to “Vmw65-Lyn SH2 fusion protein (human Lyn amino acids 124-229) (from UniProt P06492)”, the Galactosidase units (Galactosidase units) in assay [1] was 0; in assay [2], 0; in assay [3] it was 0; in assay [4] it was 0; in assay [5] it was 858.

As to “Vmw65-SykN SH2 fusion protein (human Syk amino acids 11-111) (from UniProt P06492)”, the Galactosidase units (Galactosidase units) in assay [1], in assay [2], in assay [3], in assay [4] and in assay [5] was 0 each time.

As for “Vmw65-SykC SH2 fusion protein (human Syk amino acids 173-262) (from UniProt P06492)”, the Galactosidase units (Galactosidase units) in assay [1] was 0; in assay [2], 0; in assay [3], 0; in assay [4], 0; in assay [5] it was 593.
